{"source": "patent US5959145A", "about": "“Fatty acid analog enzyme substrates” (priority 1993, dated 1999)", "molecules": {"B1": {"name": "yeast NMT (Saccharomyces cerevisiae S288C) (protein)", "chain": "MSEEDKAKKLENLLKLLQLNNDDTSKFTQEQKKAMKDHKFWRTQPVKDFDEKVVEEGPIDKPKTPEDISDKPLPLLSSFEWCSIDVDNKKQLEDVFVLLNENYVEDRDAGFRFNYTKEFFNWALKSPGWKKDWHIGVRVKETQKLVAFISAIPVTLGVRGKQVPSVEINFLCVHKQLRSKRLTPVLIKEITRRVNKCDIWHALYTAGIVLPAPVSTCRYTHRPLNWKKLYEVDFTGLPDGHTEEDMIAENALPAKTKTAGLRKLKKEDIDQVFELFKRYQSRFELIQIFTKEEFEHNFIGEESLPLDKQVIFSYVVEQPDGKITDFFSFYSLPFTILNNTKYKDLGIGYLYYYATDADFQFKDRFDPKATKALKTRLCELIYDACILAKNANMDVFNALTSQDNTLFLDDLKFGPGDGFLNFYLFNYRAKPITGGLNPDNSNDIKRRSNVGVVML"}}, "key": {"[1]": {"test_system": "yeast myristoylprotein of Mr 20 kDa", "assay": "competition for [3H]myristate incorporation into yeast acylprotein in vivo", "assay_type": "cell-based", "settings": "Saccharomyces cerevisiae, 0.75 h; 100 μM unlabeled fatty acid or analog, 5 μM [3H]myristate, vs control cells; read-out: reduction in incorporation of [3H]myristate into yeast myristoylprotein of Mr 20 kDa", "experimental": "(§1) Saccharomyces cerevisiae strain BJ405 [MATα, trpl, prbl, prcl, pep4-3; Hemmings et al., Proc. Natl. Acad. Sci. USA 78, 435-439 (1981)] (previously referred to as JR153) was grown to mid-log phase (OD660 nm =1.0-1.2) in YPD medium (1% yeast extract/2% Bactopeptone/2% Dextrose) at 30° C. in a rotary shaker water bath. Cells were pretreated with Cerulenin at 2 μg/ml for 15 minutes and then incubated for 20-45 minutes with unlabeled myristate, palmitate or fatty acid analog at 100 μM in the presence of either 5 μM [9,10-^3 H(N)]-myristate (22.4 Ci/mmol) or L-[^35 S]methionine (1106 Ci/mmol) at 30 μCi/ml of culture.\n(§2) Cells were cooled on ice 5 minutes, pelleted at 10,000×g, then broken and extracted by the method of Towler et al., Proc. Natl. Acad. Sci. USA 83, 2812-2816 (1986). Total protein synthesis was assayed by trichloroacetic acid (TCA) precipitation. Proteins were separated by SDS-12% polyacrylamide gel electrophoresis, and [^3 H]fatty acid incorporation into cellular acyl-proteins was assayed by autoradiography followed by laser densitometry."}, "yeast NMT": {"biological_target": "T1, yeast NMT (Saccharomyces cerevisiae, UniProt P14743)", "T1 construct": "11,000-fold purified preparation of yeast NMT; endogenous in cells; host or cells: yeast (enzyme purified from yeast, 11,000-fold)", "T1 sequence (P14743 1-455)": "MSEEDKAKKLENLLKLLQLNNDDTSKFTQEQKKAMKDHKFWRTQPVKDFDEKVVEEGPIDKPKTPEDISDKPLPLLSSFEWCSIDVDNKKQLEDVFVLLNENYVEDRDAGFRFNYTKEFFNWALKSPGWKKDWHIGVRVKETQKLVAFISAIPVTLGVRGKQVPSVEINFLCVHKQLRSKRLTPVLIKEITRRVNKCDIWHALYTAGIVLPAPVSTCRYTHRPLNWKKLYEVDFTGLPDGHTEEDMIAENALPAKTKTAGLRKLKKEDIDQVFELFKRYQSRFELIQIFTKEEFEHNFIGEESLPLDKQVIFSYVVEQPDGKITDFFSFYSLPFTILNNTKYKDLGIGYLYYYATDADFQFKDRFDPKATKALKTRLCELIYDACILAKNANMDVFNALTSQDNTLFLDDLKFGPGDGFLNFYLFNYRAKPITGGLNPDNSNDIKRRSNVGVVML", "assay": "kinetic characterisation of fatty acid analogs as yeast NMT substrates", "assay_type": "biochemical", "description": "(§3) Similar results were obtained using an 11,000-fold purified preparation of yeast NMT [Towler et al., Proc. Natl. Acad. Sci. USA 84, 2708-2712 (1987)].\n(§4) Other illustrative examples of the oxy- and thio-substituted fatty acid analog substrate compounds of the invention were synthesized in Examples 6 to 14 and tested in Example 15 as substrates for the yeast NMT.\n(§5) For these Examples, each analog synthesized is characterized by ^1 H and ^13 C NMR as well as mass spectroscopy. The analogs are then characterized kinetically as NMT substrates. Briefly, fatty acid analogs are converted to their CoA esters with Pseudomonas CoA ligase and incubated with the iodinated peptide GNAAS[^125 I]YRR and a source of NMT. […] The radiolabelled peptide is then used at concentrations which will lead to 50% enzyme saturation (i.e., at its Km) for the determination of fatty acid analog kinetic characteristics. Representative analogs with sulfur or oxygen in the backbone of the fatty acid chain serve as good substrates for NMT in vitro and will compete for incorporation of ^3 H labelled myri-state into yeast proteins in vivo. In addition, these analogs differ markedly in hydrophobicity from myri-state as measured both by C18 reverse phase HPLC elution profiles and by 2-octanol/water partition coefficients. The analog CH3 O(CH2)11 COOH, for example, partitions into water 20 fold better than myristate. It is believed that these analogs will be incorporated into mammalian acylproteins in vivo and that their incorporation into these proteins will drastically alter protein processing or targeting. It is further believed that the incorporation of fatty acid analogs of both myristate and palmitate into ester linked and phosphatidyl inositol glycan linked acylproteins will also dramatically alter their properties. Since many viral proteins and oncogenes are acylated, these compounds represent a new class of potential antiviral and antineoplastic agents."}, "[2]": {"test_system": "Saccharomyces cerevisiae strain BJ405", "assay": "growth, toxicity and total protein synthesis in yeast cells", "assay_type": "cell-based", "experimental": "as §1, §2"}, "[3]": {"assay": "growth, toxicity and total protein synthesis in yeast cells", "assay_type": "cell-based", "settings": "s. cerevisiae bj405, vs control cells not exposed to exogenous fatty acid, read-out: reduction in total protein synthesis ([35S]methionine into TCA precipitable protein)", "experimental": "as §1, §2"}, "[4]": {"assay": "C18 reverse phase HPLC elution of fatty acyl peptides (hydrophobicity)", "assay_type": "physicochemical", "settings": "C18 reverse phase HPLC, acyl derivative of GNAAS[125I]YRR; Table 2", "experimental": "The fatty acid analog acyl-peptide eluted 7 minutes earlier than the corresponding myristoyl peptide. The free peptide elutes in the void volume (3-5minutes).\nThis difference was evident when the HPLC elution characteristics of fatty acyl peptides were examined. The elution time of a particular acyl-peptide depends strongly on the peptide sequence as well as on the acyl chain attached to that peptide. For example, the elution times of fatty acyl derivatives of GNAAAARR are (in minutes) decanoic acid, 9; dodecanoic acid, 18; myristic acid, 24; and palmitic acid, 30. Elution times for fatty acyl derivatives of GNAAS[^125 I]YRR are 23 and 28 minutes for C12 and C14 fatty acids, respectively (FIG. 2). […] Such a change could alter the biological activity of myristoyl proteins.\nas §5"}, "[5]": {"assay": "2-octanol/water partition", "assay_type": "physicochemical", "experimental": "as §5, with “It is further believed that the incorporation of fatty acid analogs of both myristate and palmitate into ester linked and phosphatidyl inositol glycan linked acylproteins will also dramatically alter their properties. Since many viral proteins and oncogenes are acylated, these compounds represent a new class of potential antiviral and antineoplastic agents.” left out"}, "[6]": {"substrate": "CCCCCCCCSCCCCC(=O)O", "assay": "kinetic characterisation of fatty acid analogs as yeast NMT substrates", "assay_type": "biochemical", "settings": "other: peptide GNAAS[125I]YRR varied, fatty acid analog at 15 μM", "description": "as §3, §4, §5"}, "[7]": {"substrate": "CCCCCCCCOCCCCC(=O)O", "assay": "kinetic characterisation of fatty acid analogs as yeast NMT substrates", "assay_type": "biochemical", "settings": "other: peptide GNAAS[125I]YRR varied, fatty acid analog at 15 μM", "description": "as §3, §4, §5"}, "[8]": {"substrate": "CCSCCCCCCCCCCC(=O)O", "assay": "kinetic characterisation of fatty acid analogs as yeast NMT substrates", "assay_type": "biochemical", "settings": "other: peptide GNAAS[125I]YRR varied, fatty acid analog at 15 μM", "description": "as §3, §4, §5"}, "[9]": {"substrate": "CCCSCCCCCCCCCC(=O)O", "assay": "kinetic characterisation of fatty acid analogs as yeast NMT substrates", "assay_type": "biochemical", "settings": "other: peptide GNAAS[125I]YRR varied, fatty acid analog at 15 μM", "description": "as §3, §4, §5"}, "[10]": {"substrate": "COCCCCCCCCCCC(=O)O", "assay": "kinetic characterisation of fatty acid analogs as yeast NMT substrates", "assay_type": "biochemical", "settings": "other: peptide GNAAS[125I]YRR varied, fatty acid analog at 15 μM", "description": "as §3, §4, §5"}, "[11]": {"substrate": "CCCOCCCCCCCCCC(=O)O", "assay": "kinetic characterisation of fatty acid analogs as yeast NMT substrates", "assay_type": "biochemical", "settings": "other: peptide GNAAS[125I]YRR varied, fatty acid analog at 15 μM", "description": "as §3, §4, §5"}, "[12]": {"substrate": "CCCCOCCCCCCCCCCC(=O)O", "assay": "kinetic characterisation of fatty acid analogs as yeast NMT substrates", "assay_type": "biochemical", "settings": "other: peptide GNAAS[125I]YRR varied, fatty acid analog at 15 μM", "description": "as §3, §4, §5"}, "[13]": {"substrate": "CCCCCCCCCCCCCC(=O)O", "assay": "kinetic characterisation of fatty acid analogs as yeast NMT substrates", "assay_type": "biochemical", "settings": "other: peptide GNAAS[125I]YRR varied, fatty acid analog at 15 μM", "description": "as §3, §4, §5"}, "[14]": {"substrate": "CCOCCCCCCCCCCC(=O)O", "assay": "kinetic characterisation of fatty acid analogs as yeast NMT substrates", "assay_type": "biochemical", "settings": "other: peptide GNAAS[125I]YRR varied, fatty acid analog at 15 μM", "description": "as §3, §4, §5"}, "[15]": {"substrate": "C#CCOCCCCCCCCCC(=O)O", "assay": "kinetic characterisation of fatty acid analogs as yeast NMT substrates", "assay_type": "biochemical", "settings": "other: peptide GNAAS[125I]YRR varied, fatty acid analog at 15 μM", "description": "as §3, §4, §5"}}, "data": [{"molecule": "COCCCCCCCCCCCC(=O)O", "note": "[E, 12-(Methoxy)dodecanoic acid]", "values": [{"measurement": "inhibition at 100 µM", "setting": "[1]", "result": "35 to 60", "unit": "%"}, {"measurement": "Peptide Vm", "setting": "yeast NMT; peptide GNAAS[125I]YRR varied, fatty acid analog at 15 μM, myristate control = 100%", "result": 177, "unit": "%"}, {"measurement": "Acyl CoA Vm", "setting": "yeast NMT; radiolabelled peptide at its Km, analog varied, myristate control = 100%", "result": "~ 110%"}, {"measurement": "Km", "setting": "yeast NMT; radiolabelled peptide at its Km, analog varied, read-out: Acyl CoA Km", "result": "~2", "unit": "µM"}, {"measurement": "difference in growth rates versus cells treated with 100 μM myristate", "setting": "[2]", "result": "No difference"}, {"measurement": "inhibition at 100 µM", "setting": "[3]", "result": "10 to 15", "unit": "%"}, {"measurement": "Elution Time", "setting": "[4]", "result": "12 to 13", "unit": "min"}, {"measurement": "partition into water relative to myristate", "setting": "[5]", "result": 20, "unit": "fold"}]}, {"molecule": "B1", "values": [{"measurement": "Km", "setting": "[6]", "result": 11.5, "unit": "µM"}, {"measurement": "Km", "setting": "[7]", "result": 31, "unit": "µM"}, {"measurement": "Km", "setting": "[8]", "result": 19, "unit": "µM"}, {"measurement": "Km", "setting": "[9]", "result": 47, "unit": "µM"}, {"measurement": "Km", "setting": "[10]", "result": 47.3, "unit": "µM"}, {"measurement": "Km", "setting": "[11]", "result": 34, "unit": "µM"}, {"measurement": "Km", "setting": "[12]", "result": 42, "unit": "µM"}, {"measurement": "Km", "setting": "[13]", "result": 10, "unit": "µM"}, {"measurement": "Km", "setting": "[14]", "result": 14.8, "unit": "µM"}, {"measurement": "Km", "setting": "[15]", "result": 28, "unit": "µM"}]}]}
